{"source": "patent US11285285B2", "about": "“Systems and methods comprising a droplet delivery device and a breathing assist device for therapeutic treatment” (PNEUMA RESPIRATORY, INC., priority 2016, dated 2022)", "type_in_all_cases": "physicochemical", "key": {"[1]": {"assay": "Anderson Cascade Impactor testing of Albuterol sulfate aerosol from the droplet delivery device (Example B)", "conditions": "Albuterol 0.5%, 28.3 lpm, 10 actuations", "description": "Droplet size distribution and related functionality was evaluated for exemplary droplet delivery devices of the disclosure, including Anderson Cascade Impactor testing, total drug mass output rates, total drug respirable mass, delivery efficiencies and reproducibility.\nThe study was designed to evaluate device performance of a single Pneuma™ inhaler. A series of three (3) individual tests were conducted with a new disposable drug cartridge for each test. The testing platform utilizes an eight-stage nonviable Anderson Cascade Impactor (Thermo Fisher Scientific; Waltham, Mass.) equipped with a calibrated AALBORG model GFM47 mass flow meter (AALBORG Instruments and Controls; Orangeburg, N.Y.) for flow rate measurement.\nAt the conclusion of each test, the mouthpiece was rinsed with mobile phase and collected for HPLC analysis to determine the mass fraction of non-respirable aerosolized drug captured in the mouthpiece via inertial filtering. Following each test, impactor stage samples were extracted and recovered in solvent and analyzed for the active pharmaceutical ingredient (API) using a Dionex Ultimate 3000 nano-HPLC with UV detection (Thermo Scientific, Sunnyvale, Calif.).\nThe cascade impactor testing procedure involved fitting the mouthpiece into the Impactor USP throat with a mouthpiece connection seal. The vacuum pump supplying sample air flow to the cascade impactor was turned on and the pump control valves adjusted to supply 28.3 L/min total flow through the impactor and inhaler body during aerosol tests.\nThe device was connected to the impactor USB throat, turned on, and actuated ten (10) times for each test. At the conclusion of the test period, the device, impactor, and dilution air sources were turned off. The i mouthpiece was rinsed in order to extract drug, and all stages of the cascade impactor were rinsed with a quantity of appropriate solvent (HPLC mobile phase). Extracted samples were placed in labeled and sterile HPLC vials, capped, and analyzed for drug content via HPLC with UV detection. The mouthpiece was extracted of residual drug and analyzed for drug content via HPLC to measure mouthpiece drug deposition in relation to the total collected on the impactor stages.\nAll system flow rates and impactor sample flows were monitored throughout each test period. Following each test, the impactor slides were placed in labeled sterile Petri dishes, and impactor stages were extracted of drug using 2 ml of mobile phase applied with a calibrated micropipette. All extracted samples from the mouthpiece and impactor were placed in labeled sterile amber HPLC sample vials, and stored refrigerated at approximately 2° C. until HPLC analysis.\nImpactor collection stages for all tests were rinsed with DI water and ethanol, and air dried prior to each inhaler test trial to avoid contamination. A new inhaler drug cartridge was used for each of the three individual tests.\nAll drug content analysis was performed using a Dionex Ultimate 3000 nano-HPLC equipped with a Dionex UVD-3000 multi-wavelength UV/VIS Detector using a micro flow cell (75 um×10 mm path length, total analytical volume 44.2 nl). […] Total HPLC run time was 6 minutes per sample with approximately 5 minutes flush between each sample. Sample injection was performed with a 1 μl sample loop in full loop injection mode.\nBuffer formulation contains reverseosmosis filtered deionized water with 1.13 gr of sodium 1-hexanesulfonate (Alfa Aesar) in 1200 ml of water, with 2 ml glacial acetic acid (Acros Organics) added. The mobile phase solution was mixed and filtered through a 0.45 um filter membrane. The final mobile phase is a 60:40 dilution of Buffer:MEOH."}, "[2]": {"assay": "Insulin stability after aerosol generation, size exclusion chromatography (SEC)", "from_the_text": "Size Exclusion Chromatography (SEC): Alternately, to determine the stability of active agent after droplet generation, the generated stream of droplets including the active agent may be collected and SEC-HPLIC may be employed to monitor for any changes in large molecule aggregation and protein fragment content. Soluble protein aggregates and protein fragment content may be calculated by comparing respective peak area under the SEC-HPLC curve of dispensed protein solutions with controls (solutions remaining in the device reservoir).\nDrug solutions for testing include Enbrel, (ENBREL® single-use prefilled syringes in 25 mg (0.51 mL of a 50 mg/mL solution of etanercept), and insulin, (Humalog, 200 units/ml, 3 ml kwikpens)\nTo calculate and compare effects of droplet generation through an ejector mechanism of the disclosure, the total area under the curve of the UV signal at 280 nm versus elution time for controls is compared with the aerosolized samples, which is set to 100%.\nAerosol collection and SEC is performed in a similar fashion as for the Enbrel analysis and aerosol collection.\nFifty microliters of the collected aerosol spray is injected onto the SEC column for analysis, while 50 mcl of the Kwikpen insulin solution is injected onto the SEC column for control samples."}, "[3]": {"assay": "Gel electrophoresis of active agent after droplet generation", "from_the_text": "Gel Electrophoresis: To determine the stability of active agent after droplet generation, the generated stream of droplets including the active agent is collected and the molecular weight of the active agent is verified using gel electrophoresis."}, "[4]": {"assay": "Enbrel stability after aerosol generation, size exclusion chromatography (SEC)", "from_the_text": "Size Exclusion Chromatography (SEC): Alternately, to determine the stability of active agent after droplet generation, the generated stream of droplets including the active agent may be collected and […] may be employed to monitor for any changes in large molecule aggregation and protein fragment content. Soluble protein aggregates and protein fragment content may be calculated by comparing respective peak area under the SEC-HPLC curve of dispensed protein solutions with controls (solutions remaining in the device reservoir). Drug solutions for testing include Enbrel, (ENBREL® single-use prefilled syringes in 25 mg (0.51 mL of a 50 mg/mL solution of etanercept), and insulin, (Humalog, 200 units/ml, 3 ml […] is performed with a YarraTM 3 um SEC-2000 LC column 300×7.8 mm, SecurityGuard cartridge kit and SecurityGuard cartridges GFC-2000, 4×3 mm ID. Fifty microliters of Enbrel from the syringe (ENBREL® single-use prefilled syringes in 25 mg/0.51 mL of a 50 mg/mL solution of etanercept) is diluted (4:1) (4 parts, 200 mcl of the mobile phase buffer solution to 1 part, 50 mcl Enbrel from syringe). Fifty microliter of the diluted Enbrel is injected and separation was performed at a flow rate of 1.0 ml/min. The mobile phase buffer system included a PHOS. BUFF. SALINE. […] UV detection is performed at 280 nm. […] An ampule/cartridge is filled with either 0.20 ml of Enbrel® (50 mg/ml) diluted 4:1 (10 mg/ml)(4 parts (200 mcl) of PBS and 0.025% NaN3 and 1 part (50 mcl of Enbrel solution from the syringe). After 20 actuations and aerosolization, about 150 mcl of the aerosolized Enbrel solution is recovered and collected in the polypropylene tube located below the ejector mechanism. The control consists of the diluted Enbrel solution, 50 mcl of which is injected into the SEC column for analysis."}, "[5]": {"conditions": "average of Aerosolized S1 and S2"}, "[6]": {"conditions": "control (diluted Enbrel 10 mg/ml, not aerosolized), SEC UV 280 nm"}}, "data": [{"substance": "Albuterol sulfate", "values": [{"measurement": "Fine Particles (<0.4 um)", "setting": "[1]; Anderson Cascade", "result": 31.0, "unit": "µg"}, {"measurement": "Fine Particule Fraction (<0.4 um)", "setting": "[1]; Anderson Cascade", "result": 3.5, "unit": "%"}, {"measurement": "droplets of an average diameter of less than about 4 μm", "setting": "[1]; Anderson Cascade", "result": "over 70%"}, {"measurement": "Cum. % <", "setting": "[1]; FILTER", "result": 0.00, "unit": "%"}, {"measurement": "Cum. % >", "setting": "[1]; FILTER", "result": 100.00, "unit": "%"}]}, {"substance": "Insulin: insulin, Humalog, 200 units/ml, 3 ml kwikpens", "values": [{"measurement": "ejected dose that is structurally unchanged", "setting": "[2]; aerosolized with test device", "result": 97.5, "unit": "%"}, {"measurement": "Peak 3 area, Avg.", "setting": "[2]; [5]", "result": 2.4905}, {"measurement": "Peak Area %, Peak 3", "setting": "[2]; control (Kwikpen insulin solution 200 U/ml, not aerosolized), SEC", "result": 0, "unit": "%"}, {"measurement": "ejected dose that forms a fragment", "setting": "[2]; fragment which elutes at ~25 minutes", "result": 2.5, "unit": "%"}]}, {"substance": "adalimumab", "values": [{"measurement": "change in the electrophoretic mobility (molecular weight) of post-aerosol active agent versus control", "setting": "[3]", "result": "negligible change in the electrophoretic mobility"}]}, {"substance": "bevacizumab", "values": [{"measurement": "change in the electrophoretic mobility (molecular weight) of post-aerosol active agent versus control", "setting": "[3]", "result": "negligible change in the electrophoretic mobility"}]}, {"substance": "etanercept [Enbrel]", "values": [{"measurement": "Peak 4 area, Avg.", "setting": "[4]; [5]", "result": 0.3545}, {"measurement": "Peak 5 area, Avg.", "setting": "[4]; [5]", "result": 4.2755}, {"measurement": "Peak Area %, Peak 4", "setting": "[4]; [6]", "result": 0, "unit": "%"}, {"measurement": "Peak Area %, Peak 5", "setting": "[4]; [6]", "result": 0, "unit": "%"}, {"measurement": "dose that leads to formation of molecular fragments", "setting": "[4]; fragments with elution times of 13 and 25 minutes", "result": 4.6, "unit": "%"}, {"measurement": "change in the electrophoretic mobility (molecular weight) of post-aerosol active agent versus control", "setting": "[3]", "result": "negligible change in the electrophoretic mobility"}]}]}
